Measured values from patent publication US20130156779A1 (GlaxoSmithKline, published 2013).
Blank lines part the entries; values can stand above or below the binder they belong to.

Columns and labels:
[1] = biological target: T1, Human HER3 ECD domain III (human, UniProt P21860 330-495); test: BIACORE 2000 SPR, mAb captured, HER3 protein as analyte, 25 C
T1 construct: also called D3; Domain 3
Procedure: (§1) Mouse monoclonal antibodies were analysed using rabbit anti-mouse (RAM) IgG (GE Healthcare BR-1008-38) covalently coupled to a BIACORE™ CM5 chip (GE HEalthcare BR-1000-14) by primary amine chemistry (NHS/EDC activated) (GE Healthcare amine coupling kit BR-1000-50). Chimeric and humanized competitor monoclonal antibodies were analyzed using anti-human, Fc specific monoclonal (GE Healthcare BR-1008-39) similarly coupled. Each chip was also prepared with a reference surface to which no capture reagent antibody is coupled. Sensorgrams for cycles run with differing analyte concentrations are acquired for kinetic analysis. A cycle consists of capturing the monoclonal on the surface, a short stabilization period with flowing run buffer followed by binding of a defined concentration of analyte (ECD or sub-domain protein). Injection of analyte for surface binding (3-4 minutes) yields the association part of curve. This is followed by buffer only flow (3-4 minutes) which allows recording of dissociation data.
(§2) The general method for affinity analysis is as follows. First, chips were prepared and tested for reasonance units (RU) captured for several monoclonal antibody concentrations. Kinetic cycles were then run in which monoclonal antibody was captured to a level of approximately 100RU, analyte protein was allowed to bind then dissociate and the surface was regenerated to remove all but covalently coupled protein. RAM chips were regenerated with capture kit supplied 100 mM glycine pH1.7 and anti-human chips with capture kit supplied 3M MgCl₂. […] Several buffer cycles were run prior to analyte protein to ensure cycle consistency and in some experiments a buffer cycle is used a “double reference[.]” Analytes used were human full length HER3 extra cellular domain (ECD), separate sub-domains of the extracellular portion of human HER3 (D1, D2, D3, D4), or combination HER3 domain proteins (D1-2 and D2-3).

[2] = biological target: T2, Full-length human HER3 extracellular domain (ECD) (human, UniProt P21860 20-643); test: as above
T2 construct: also called human HER3 ECD; HER-3 ECD full length
Procedure: as §1, §2

[3] = biological target: T1, Human HER3 ECD domain III; test: affinity summary table, method not given
[4] = biological target: T2, Full-length human HER3 extracellular …; test: affinity summary table, method not given
Human HER3 receptor [5] = biological target: T3, Human HER3 receptor (human, UniProt P21860 20-1342); test: cell-based or functional assay
Human HER3 receptor [6] = biological target: T3, Human HER3 receptor; test: cell-based or functional assay; remark: listed apart in the source
[7] = biological target: T2, Full-length human HER3 extracellular …; test: BIACORE SPR, mAb captured on protein A, ECD as analyte, 25 C
Procedure: (§3) Protein A was immobilised on a CM5 chip by primary amine coupling to a level of ˜1300 resonance units (RU′s), humanized antibodies were then captured on this chip, All antibodies were captured to a similar level (100-200 RU's). […] Alternatively, the full-length, rat HER3 ECD or the full-length cynomolgus monkey ECD were passed over the chip at 10 nM, 5 nM, 2.5 nM, 1:25nM, 0.625 nM and 0.3125nM. An injection of buffer alone was used to double reference the binding curves as indicated in Example 1. Regeneration of this surface was achieved using 10 mM Glycine buffer pH 1.5. The binding data was fitted to the 1:1 model using BIACORE™ Evaluation software. Runs were carried out at 25° C. on a BIACORE™ T3000 using HBS-EP as running buffer.

Human HER3 ECD domain II [8] = biological target: T4, Human HER3 ECD domain II (human, UniProt P21860 184-329); test: DELFIA, plate coated with HER3 Domain II 1ug/ml
T4 construct: also called D2; Domain 2
Procedure: Dissociation Enhanced Lanthanide Fluorescence Immunoassay (DELFIA) for detection of the anti-HER3 antibodies to HER3 extracellular domain (ECD) was used. The DELFIA procedures were as follows: white Maxisorp 96-well plates (Nunc #437796) were coated with 100 ul/well of 1 ug/ml HER-3 ECD full length or HER3Domain I, II, III and IV in 0.1M carbonate buffer pH 9.5 overnight at 4° C. These plates were blocked with casein in TBS (Thermo Scientific #37532 lot#JD121074). The neat hybridoma supernatant, or the purified anti-HER3 antibodies diluted in Perkin Elmer #4002-0010 Assay Buffer from 10 ug/ml (or 100 ug/ml) to 0.01 ug/ml, or the PK serum samples with a minimum of 3 dilutions (100 ul/well) were added to the plate. These samples were incubated for 2 hours at room temperature while on a plate shaker or overnight at 4° C. […] The plate was washed 4 times with tris-buffer plus 0.05% tween-20 (Perkin Elmer #4010-0010) on a BIOTEK™ plate washer following each antibody incubation step. 100 ul/well of DELFIA enhancement solution (Perkin Elmer 1244-105) was added for 5 minutes at room temperature. […] Antibody binding was recorded as europium counts per well.

Human HER3 receptor [9] = biological target: T3, Human HER3 receptor; test: cell-based or functional assay; remark: listed apart in the source
Human HER3 ECD domain II [10] = biological target: T4, Human HER3 ECD domain II; test: BIACORE 2000 SPR, mAb captured, HER3 protein as analyte, 25 C
Procedure: as §1, §2

[11] = biological target: T2, Full-length human HER3 extracellular …; test: BIACORE 3000 SPR, mAb captured by anti-human Fc, ECD as analyte, 25 C
Procedure: The binding kinetics of these antibodies for was assessed using a BIACORE™ 3000. Antibodies were captured on a CM5 biosensor chip to which an immobilized anti-human IgG (Fc specific) BIACORE™ (GE Healthcare cat# BR-1008-39) monoclonal antibody had been conjugated using supplied coupling buffer (9000 RU). Full-length human HER3 ECD concentrations were injected for 120s at a flow rate of 30 ul/min. Biosensor chips were regenerated as described in Example 1. Kinetics were determined by global fitting of data to the 1:1 Langmuir model using BIACORE™ Evaluation software. Analytical runs were carried out at 25° C. using FIBS-EP as the running buffer.
Buffer cycle and double referencing were performed as described in Example 1; and 5) Regenerate biosensor chips with BIACORE™ optimized buffers.

Human HER3 ECD domain II [12] = biological target: T4, Human HER3 ECD domain II; test: affinity summary table, method not given
[13] = biological target: T2, Full-length human HER3 extracellular …; test: BIACORE SPR, mAb captured on protein A, ECD as analyte, 25 C; remark: listed apart in the source
Procedure: as §3

[14] = biological target: T5, Full-length cynomolgus monkey HER3 extracellular domain (ECD) (cynomolgus monkey, UniProt G7PIG5 20-643); test: as above
T5 construct: extracellular domain; also called Cynomolgus monkey HER3 ECD
Procedure: as §3

[15] = biological target: T6, Full-length rat HER3 extracellular domain (ECD) (rat, UniProt Q62799 20-643); test: as above
T6 construct: extracellular domain; also called Rat HER3 ECD
Procedure: as §3

T4 sequence (P21860 184-329): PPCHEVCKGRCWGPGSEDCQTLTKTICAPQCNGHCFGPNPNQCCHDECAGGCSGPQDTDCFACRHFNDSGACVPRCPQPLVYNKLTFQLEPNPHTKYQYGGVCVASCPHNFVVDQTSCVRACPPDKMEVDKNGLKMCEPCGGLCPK
T2 sequence (P21860 20-643): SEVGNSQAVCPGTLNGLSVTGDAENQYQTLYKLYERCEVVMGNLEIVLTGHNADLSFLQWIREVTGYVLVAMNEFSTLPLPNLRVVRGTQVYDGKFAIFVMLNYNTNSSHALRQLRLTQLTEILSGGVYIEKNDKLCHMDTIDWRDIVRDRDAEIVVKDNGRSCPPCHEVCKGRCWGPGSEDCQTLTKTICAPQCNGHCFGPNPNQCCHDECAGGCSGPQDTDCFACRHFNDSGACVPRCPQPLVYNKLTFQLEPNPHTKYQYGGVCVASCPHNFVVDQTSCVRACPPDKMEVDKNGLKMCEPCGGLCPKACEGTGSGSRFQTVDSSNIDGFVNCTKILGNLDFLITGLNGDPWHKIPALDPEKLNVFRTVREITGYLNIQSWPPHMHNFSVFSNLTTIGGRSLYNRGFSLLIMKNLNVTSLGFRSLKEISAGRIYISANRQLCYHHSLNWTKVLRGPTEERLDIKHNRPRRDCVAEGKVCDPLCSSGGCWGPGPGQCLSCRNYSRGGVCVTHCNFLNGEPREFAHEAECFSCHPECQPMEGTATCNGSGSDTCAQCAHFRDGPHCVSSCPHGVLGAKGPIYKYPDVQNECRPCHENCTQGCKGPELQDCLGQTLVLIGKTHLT
T6 sequence (Q62799 20-643): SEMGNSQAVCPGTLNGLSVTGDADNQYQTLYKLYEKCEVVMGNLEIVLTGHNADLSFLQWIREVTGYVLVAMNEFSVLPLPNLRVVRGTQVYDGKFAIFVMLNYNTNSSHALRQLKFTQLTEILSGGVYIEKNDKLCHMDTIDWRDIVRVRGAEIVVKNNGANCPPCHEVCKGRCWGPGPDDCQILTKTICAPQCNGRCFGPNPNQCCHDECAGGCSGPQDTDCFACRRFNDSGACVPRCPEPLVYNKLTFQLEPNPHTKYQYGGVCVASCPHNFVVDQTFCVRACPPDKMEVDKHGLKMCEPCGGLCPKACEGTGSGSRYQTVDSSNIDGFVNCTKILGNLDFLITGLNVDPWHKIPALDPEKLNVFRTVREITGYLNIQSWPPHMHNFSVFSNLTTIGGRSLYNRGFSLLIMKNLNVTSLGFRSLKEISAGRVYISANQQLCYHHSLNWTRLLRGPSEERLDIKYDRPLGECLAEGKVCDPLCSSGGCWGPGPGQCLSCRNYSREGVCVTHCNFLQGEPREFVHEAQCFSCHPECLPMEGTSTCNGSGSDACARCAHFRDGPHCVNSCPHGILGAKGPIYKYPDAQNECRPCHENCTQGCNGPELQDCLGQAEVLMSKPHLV
T3 sequence (P21860 20-1342 limits assumed): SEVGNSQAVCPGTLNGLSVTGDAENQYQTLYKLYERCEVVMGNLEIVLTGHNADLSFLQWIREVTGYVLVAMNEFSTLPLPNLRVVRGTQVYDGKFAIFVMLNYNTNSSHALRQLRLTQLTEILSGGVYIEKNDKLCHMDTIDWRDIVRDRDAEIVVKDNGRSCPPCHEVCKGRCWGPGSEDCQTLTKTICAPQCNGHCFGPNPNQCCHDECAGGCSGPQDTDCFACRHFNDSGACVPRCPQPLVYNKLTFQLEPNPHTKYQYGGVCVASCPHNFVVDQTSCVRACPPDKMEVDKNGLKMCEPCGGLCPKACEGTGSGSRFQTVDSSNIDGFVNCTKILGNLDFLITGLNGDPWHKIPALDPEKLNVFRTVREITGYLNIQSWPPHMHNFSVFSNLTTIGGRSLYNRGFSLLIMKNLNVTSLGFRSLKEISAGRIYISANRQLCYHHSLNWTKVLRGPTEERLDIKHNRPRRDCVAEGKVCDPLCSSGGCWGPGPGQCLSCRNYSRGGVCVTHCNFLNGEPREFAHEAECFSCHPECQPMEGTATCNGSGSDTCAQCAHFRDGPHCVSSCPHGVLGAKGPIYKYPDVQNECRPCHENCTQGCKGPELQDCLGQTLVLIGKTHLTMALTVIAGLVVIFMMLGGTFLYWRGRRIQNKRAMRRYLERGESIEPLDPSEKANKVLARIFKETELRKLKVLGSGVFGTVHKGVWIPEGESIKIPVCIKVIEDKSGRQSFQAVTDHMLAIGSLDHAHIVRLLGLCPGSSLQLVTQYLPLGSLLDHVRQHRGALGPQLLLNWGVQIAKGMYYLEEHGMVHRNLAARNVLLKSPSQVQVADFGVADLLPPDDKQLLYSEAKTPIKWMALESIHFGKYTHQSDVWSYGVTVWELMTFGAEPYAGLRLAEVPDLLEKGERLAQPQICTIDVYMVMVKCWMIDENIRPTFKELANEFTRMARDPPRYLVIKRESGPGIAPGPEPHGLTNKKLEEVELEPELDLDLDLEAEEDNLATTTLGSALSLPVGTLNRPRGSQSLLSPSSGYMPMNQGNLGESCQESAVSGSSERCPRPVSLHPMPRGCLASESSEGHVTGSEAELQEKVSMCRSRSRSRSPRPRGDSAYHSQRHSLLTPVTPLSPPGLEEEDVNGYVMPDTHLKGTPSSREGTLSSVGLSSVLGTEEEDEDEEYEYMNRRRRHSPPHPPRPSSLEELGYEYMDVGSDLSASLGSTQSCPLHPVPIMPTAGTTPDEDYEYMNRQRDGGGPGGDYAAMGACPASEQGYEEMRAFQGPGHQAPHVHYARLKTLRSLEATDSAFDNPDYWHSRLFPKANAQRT
T1 sequence (P21860 330-495): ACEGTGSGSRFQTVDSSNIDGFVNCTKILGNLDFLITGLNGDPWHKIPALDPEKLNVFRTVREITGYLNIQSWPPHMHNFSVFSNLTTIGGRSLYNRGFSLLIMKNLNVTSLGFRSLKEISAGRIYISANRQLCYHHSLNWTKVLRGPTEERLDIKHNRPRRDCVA
T5 sequence (G7PIG5 entry or part of it): as the sequence (P21860 20-643) above, with R145K, R151Q, P166L, S180P, H388Y counted along it

Kd [1]: 0.2 nM
kon [1]: 4.58e+06 M⁻¹ s⁻¹
Kd [2]: 1.1 nM
kon [2]: 740000 M⁻¹ s⁻¹
Kd [3]: 0.198 nM
Kd [4]: ~1 nM
B1: Chimeric 1D9 antibody (antibody, V domains shown)
VH: QVQLQQPGAELVRPGTSVKLSCKASGYTFTSYWMHWVKQRPGQGLEWIGVIDPSDGYSHYNQKFKGKATLTVDTSSSTAYMQLSSLTSEDSAVYYCAGGLAGTLDYWGQGTTLTVSS
VL: DVLMTQTPLSLPVSLGDQASISCRSSQSIVHSSGNTYLQWFLQKPGQSPKLLISKVSNRFSGVPDRFSGSGSGTDFTLRISRVEAEDLGLYYCFQGSHVPWTFGGGTKLEIK
notes: Murine VH fused to human IgG1 CH1-Fc, murine VL fused to human CK; also called Ch1D9; ch1D9

IC50 of heregulin induced phospho-AKT formation, BxPC3 cells (Human HER3 receptor [5]): 0.0026 µg/mL
Phospho-HER3 ELISA IC50, heregulin induced, BxPC3 cells (Human HER3 receptor [6]): 0.0026 µg/mL
Phospho-HER3 ELISA IC50, heregulin induced, CHL-1 cells (Human HER3 receptor [6]): 0.0311 µg/mL
Phospho-HER3 ELISA IC50, heregulin induced, N87 cells (Human HER3 receptor [6]): 0.0094 µg/mL
Phospho-HER3 ELISA IC50, heregulin induced, SK-BR-3 cells (Human HER3 receptor [6]): 0.0025 µg/mL
Kd [7]: 2.06 nM
koff [7]: 0.00233 s⁻¹
kon [7]: 1.13e+06 M⁻¹ s⁻¹
binding result (Human HER3 ECD domain II [8]): no binding (tested: 10 ug/ml)
Phospho-AKT ELISA IC50, heregulin induced, BxPC3 cells (Human HER3 receptor [9]): 0.0108 µg/mL
B2: Humanized 1D9 …B™ antibody (antibody, human IgG1, kappa)
heavy: QVQLVQSGAEVKKPGASVKVSCKASGYTFTSYWMHWVRQAPGQGLEWMGVIDPSDGYSHYNQKFKGKVTLTVDTSISTAYMELSRLRSDDTAVYYCAGGLAGTLDYWGQGTTVTVSSASTKGPSVFPLAPSSKSTSGGTAALGCLVKDYFPEPVTVSWNSGALTSGVHTFPAVLQSSGLYSLSSVVTVPSSSLGTQTYICNVNHKPSNTKVDKKVEPKSCDKTHTCPPCPAPELLGGPSVFLFPPKPKDTLMISRTPEVTCVVVDVSHEDPEVQFKWYVDGVEVHNAKTKPREEQFNSTFRVVSVLTVLHQDWLNGKEYKCKVSNKALPAPIEKTISKTKGQPREPQVYTLPPSREEMTKNQVSLTCLVKGFYPSDIAVEWESSGQPENNYKTTPPMLDSDGSFFLYSKLTVDKSRWQQGNIFSCSVMHEALHNHYTQKSLSLSPGK
light: DIQMTQSPSSLSASVGDRVTITCRSSQSIVHSSGNTYLQWFQQKPGKAPKLLIYKVSNRFSGVPSRFSGSGSGTDFTLTISSLQPEDFAVYYCFQGSHVPWTFGQGTKLEIKRTVAAPSVFIFPPSDEQLKSGTASVVCLLNNFYPREAKVQWKVDNALQSGNSQESVTEQDSKDSTYSLSSTLTLSKADYEKHKVYACEVTHQGLSSPVTKSFNRGEC
modifications: non-fucosylated glycans on the marked N* residue
notes: Chimeric IgG1/IgG3 Fc, expressed in FUT8- cells; also called humanized …B 1D9 antibody; humanized 1D9 H6L2 …B antibody

Kd (Human HER3 ECD domain II [10]): 0.02 nM
kon (Human HER3 ECD domain II [10]): 3.82e+06 M⁻¹ s⁻¹
Kd [2]: 0.87 nM
kon [2]: 67900 M⁻¹ s⁻¹
Kd [11]: 3.19 nM
koff [11]: 0.00014 s⁻¹
kon [11]: 44000 M⁻¹ s⁻¹
Kd (Human HER3 ECD domain II [12]): 0.02 nM
Kd [4]: ~1 nM
B3: Chimeric 15D5 antibody (antibody, human IgG1, V domains shown)
VH: EFQLQQSGPELVKPGASVKISCKASGYSFTDYNMNWVKQNNGKSLEWIGGINPNYGTTVYNQKFKGKATLTVDQSSSTAYMQLVSLTSEDSAVYYCARMTTIVPFDYWGQGTTLTVSS
VL: DIQMTQTTFSLSASLGDRVTISCRASQDISNYLNWYQQKPDGTVKLLIYYTSTLHSGVPSRFSGSGSGTDYFLTIRNLEEEDIATYFCQQGYTLPWTFGGGTKLDIK
notes: To be rechecked; also called Ch15D5; ch15D5

Kd [11]: 2.62 nM
koff [11]: 0.000196 s⁻¹
kon [11]: 74900 M⁻¹ s⁻¹
Kd (Human HER3 ECD domain II [12]): 0.074 nM
Kd [4]: 3.5 nM
B4: Humanized 15D5 antibody (H4L1) (antibody, human IgG1, V domains shown)
VH: QVQLVQSGAEVKKPGASVKVSCKASGYTFTDYNMNWVRQAPGQGLEWMGGINPNYGTTVYNQKFKGKVTLTVDTSISTAYMELSRLRSDDTAVYYCARMTTIVPFDYWGQGTTVTVSS
VL: DIQMTQSPSSLSASVGDRVTITCRASQDISNYLNWYQQKPGKAPKLLIYYTSTLHSGVPSRFSGSGSGTDYTFTISSLQPEDIATYYCQQGYTLPWTFGGGTKVEIKR
notes: Human IgG1; also called h15D5

Phospho-HER3 ELISA IC50, heregulin induced, BxPC3 cells (Human HER3 receptor [6]): 0.0107 µg/mL
Phospho-HER3 ELISA IC50, heregulin induced, CHL-1 cells (Human HER3 receptor [6]): 0.0399 µg/mL
Phospho-HER3 ELISA IC50, heregulin induced, N87 cells (Human HER3 receptor [6]): 0.0297 µg/mL
Phospho-HER3 ELISA IC50, heregulin induced, SK-BR-3 cells (Human HER3 receptor [6]): 0.0044 µg/mL
Kd [7]: 4.49 nM
koff [7]: 0.00122 s⁻¹
kon [7]: 271000 M⁻¹ s⁻¹
Phospho-AKT ELISA IC50, heregulin induced, BxPC3 cells (Human HER3 receptor [9]): 0.0316 µg/mL
Kd [13]: 4.49 nM
koff [13]: 0.00122 s⁻¹
kon [13]: 271000 M⁻¹ s⁻¹
Kd [14]: 1.73 nM
koff [14]: 0.00189 s⁻¹
kon [14]: 1.09e+06 M⁻¹ s⁻¹
Kd [15]: 3.37 nM
koff [15]: 0.0011 s⁻¹
kon [15]: 326000 M⁻¹ s⁻¹
B5: Humanized 1D9 Fc disabled antibody (antibody, V domains shown)
VH: QVQLVQSGAEVKKPGASVKVSCKASGYTFTSYWMHWVRQAPGQGLEWMGVIDPSDGYSHYNQKFKGKVTLTVDTSISTAYMELSRLRSDDTAVYYCAGGLAGTLDYWGQGTTVTVSS
VL: DIQMTQSPSSLSASVGDRVTITCRSSQSIVHSSGNTYLQWFQQKPGKAPKLLIYKVSNRFSGVPSRFSGSGSGTDFTLTISSLQPEDFAVYYCFQGSHVPWTFGQGTKLEIKR
notes: Humanized VH fused to a modified Fc domain incapable of mediating CDC/ADCC; also called humanized 1D9 H6L2 Fc disabled antibody
